Paper PMC3836802, “LOV Takes a Pick: Thermodynamic and Structural Aspects of the Flavin-LOV-Interaction of the Blue-Light Sensitive Photoreceptor YtvA from Bacillus subtilis” (PLoS ONE, 2013)
Residue numbers refer to the chain shown, from its start.

Columns and labels:
[1] = target: T1, YLOV (Apo-YLOV; LOV domain of YtvA, aa 1-128) (Bacillus subtilis, UniProt O34627, M1G); experiment: isothermal titration calorimetry; type: binding; conditions: 25 °C; 20 mM Tris-HCl pH 7.5, 150 mM NaCl, 500 µM TCEP; dark; apoprotein titrated into flavin; single-site global fit; brackets 95% confidence interval
T1 construct: gene pfyP; LOV domain with N-terminal cap, aa 1-128; apo form in monomer-dimer equilibrium; 15N-labelled for ITC
T1 sequence (O34627 1-128 M1G): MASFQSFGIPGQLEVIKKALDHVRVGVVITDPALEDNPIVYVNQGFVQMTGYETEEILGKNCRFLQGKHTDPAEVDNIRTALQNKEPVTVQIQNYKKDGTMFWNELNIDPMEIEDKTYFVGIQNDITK
Description: isothermal titration calorimetry on YLOV (Apo-YLOV; LOV domain of YtvA, aa 1-128)

[2] = target: YtvA LOV domain 21-147 (Bacillus subtilis) (UniProt O34627); conditions: cited from earlier work
YtvA (Bacillus subtilis) = YtvA (Bacillus subtilis) (UniProt O34627); conditions: cited from earlier work
[3] = target: the molecule itself; experiment: AUC; sedimentation velocity, 45,000 rpm, 25 °C, absorbance at 280 nm; Apo-YLOV at 17.5, 35 and 70 µM in buffer G (20 mM Tris-HCl pH 7.5, 150 mM NaCl, 500 µM TCEP); c(S) analysis with Sedfit; dimer to monomers; the KD is called only an estimate
[4] = target: the molecule itself; experiment: AUC; sedimentation velocity, 45,000 rpm, 20 °C, absorbance at 280 nm; Apo-YtvA at 15, 30 and 60 µM in buffer H (20 mM K-phosphate pH 6.5, 50 mM NaCl, 5 mM DTT, 0.1% azide); c(S) analysis with Sedfit; dimer to monomers

Q: Which Kd [1] does the source give for `Cc1cc2nc3c(=O)[nH]c(=O)nc-3n(C[C@H](O)[C@H](O)[C@H](O)COP(=O)(O)OP(=O)(O)OC[C@H]3O[C@@H](n4cnc5c(N)ncnc54)[C@H](O)[C@@H]3O)c2cc1C` [FAD] here?
A: The Kd was 224 nM.

Q: With “YtvA LOV domain 21-147 (from UniProt O34627)” as the molecule, how does the Kd [2] read?
A: The Kd was less than 200 nM.

Q: Which Kd (YtvA (Bacillus subtilis)) does the source give for YtvA (from UniProt O34627) here?
A: The Kd was less than 300 nM.

Q: For `Cc1cc2nc3c(=O)[nH]c(=O)nc-3n(C[C@H](O)[C@H](O)[C@H](O)CO)c2cc1C` [RF], which Kd [1] is on record?
A: The Kd was 351 nM.

Q: With `Cc1cc2nc3c(=O)[nH]c(=O)nc-3n(C[C@H](O)[C@H](O)[C@H](O)COP(=O)(O)O)c2cc1C` [FMN] as the molecule, how does the Kd [1] read?
A: Its Kd is 715 nM.

B1: Apo-YLOV (deflavinated extended LOV domain of YtvA, aa 1 – 128) (domain or fragment, Bacillus subtilis, UniProt O34627 1-128, looked up)
chain: T1 sequence (O34627 1-128 M1G) with M1G
notes: YtvA, blue-light photoreceptor of Bacillus subtilis, residues 1-128 (N-terminal cap and LOV domain); TEV cleavage leaves a Gly at the N-terminus; the forward primer reads Gly-Ala-Ser-Phe-Gln, so the Gly stands in the place of Met1; also called YtvA-LOV domain; not shown: His tag, N-terminal, cleaved
Q: With B1 as the molecule, how does the Kd [3] read?
A: The Kd was roughly 14000 nM.

Q: What about the “stoichiometry N” value [3] of the same molecule?
A: Its value is 2.

B2: Apo-YtvA (deflavinated full length YtvA, aa 1 – 261) (natural protein, Bacillus subtilis, UniProt O34627 1-261, looked up)
chain: GASFQSFGIPGQLEVIKKALDHVRVGVVITDPALEDNPIVYVNQGFVQMTGYETEEILGKNCRFLQGKHTDPAEVDNIRTALQNKEPVTVQIQNYKKDGTMFWNELNIDPMEIEDKTYFVGIQNDITKQKEYEKLLEDSLTEITALSTPIVPIRNGISALPLVGNLTEERFNSIVCTLTNILSTSKDDYLIIDLSGLAQVNEQTADQIFKLSHLLKLTGTELIITGIKPELAMKMNKLDANFSSLKTYSNVKDAVKVLPIM
notes: YtvA, blue-light photoreceptor of Bacillus subtilis, full length, residues 1-261 (LOV domain aa 21-126, Jα-helix aa 127-147, STAS domain aa 148-261); Met1 replaced by the Gly left after TEV cleavage; source: TEV cleavage; not shown: His tag, N-terminal, cleaved
Q: Which “stoichiometry N” value [4] does the source give for B2 here?
A: Its value is 2.
